Assay results published in the supplement of paper PMC7125110.
± gives the standard error. For some of these results: This sample holds only a part of the variants without activity.

B1: glmS ribozyme (parent)
chain: AUAAAAGCGCCAGAACUACAGAAAUGUAGUUGACGAGGAGGAGGUUUAUCGAAUUUUCGGCGGAUGCCUCCAAA

What was measured:
Conditions in all cases: with glucosamine-6-phosphate
glucosamine-6-phosphate [1] = variants of: B1; test: kcat; higher = faster cleavage; RNA array
Method in brief: (§1)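 kcat and KM were obtained from weighted Michaelis–Menten fits across concentrations of kobs values. Those came from one- or two-exponential decay fits to per-tile medians normalised to baseline and to non-cleaving reference variants. The variants were barcoded ribozymes transcribed in situ by E. coli RNA polymerase on sequenced MiSeq chips and tracked through a hybridised Cy3 probe at 37 °C, with 40 μM to 10 mM glucosamine-6-phosphate in HEPES/KCl/Mg(OAc)2 buffer flowed in.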

glucosamine-6-phosphate [2] = variants of: B1; test: self-cleavage kobs at 40 uM GlcN6P; higher = faster cleavage; RNA array
Method in brief: as §1

glucosamine-6-phosphate [3] = variants of: B1; test: self-cleavage kobs at 160 uM GlcN6P; higher = faster cleavage; RNA array
Method in brief: as §1

glucosamine-6-phosphate [4] = variants of: B1; test: self-cleavage kobs at 640 uM GlcN6P; higher = faster cleavage; RNA array
Method in brief: as §1

glucosamine-6-phosphate [5] = variants of: B1; test: self-cleavage kobs at 2500 uM GlcN6P; higher = faster cleavage; RNA array
Method in brief: as §1

glucosamine-6-phosphate [6] = variants of: B1; test: self-cleavage kobs at 10000 uM GlcN6P; higher = faster cleavage; RNA array
Method in brief: as §1

glucosamine-6-phosphate [7] = variants of: B1; test: KM; higher = weaker cofactor use; RNA array
Method in brief: as §1

| Variant | kcat (glucosamine-6-phosphate [1]) | self-cleavage kobs at 40 uM GlcN6P (glucosamine-6-phosphate [2]) | self-cleavage kobs at 160 uM GlcN6P (glucosamine-6-phosphate [3]) | self-cleavage kobs at 640 uM GlcN6P (glucosamine-6-phosphate [4]) | self-cleavage kobs at 2500 uM GlcN6P (glucosamine-6-phosphate [5]) | self-cleavage kobs at 10000 uM GlcN6P (glucosamine-6-phosphate [6]) | KM (glucosamine-6-phosphate [7]) |
| --- | --- | --- | --- | --- | --- | --- | --- |
| A33U U54G | 0.000139 ± 4.4e-05 s⁻¹ | < 1e-05 s⁻¹ | < 1e-05 s⁻¹ | 4.57e-05 ± 1.6e-05 s⁻¹ | 5.67e-05 ± 9.8e-06 s⁻¹ | 0.000111 ± 1.8e-05 s⁻¹ |  |
| U31G A33C | 3.39e-05 ± 1.6e-06 s⁻¹ |  |  |  |  | 2.4e-05 ± 8.6e-06 s⁻¹ | 4180 ± 650 µM |
| A12U G37C | 0.000148 ± 1.2e-05 s⁻¹ |  | < 1e-05 s⁻¹ |  | 5.79e-05 ± 8.6e-06 s⁻¹ | 0.000104 ± 9.8e-06 s⁻¹ | 4210 ± 790 µM |
| G37A A42U | 0.000872 ± 0.00012 s⁻¹ | 2.47e-05 ± 1.1e-05 s⁻¹ | 5.06e-05 ± 1.2e-05 s⁻¹ | 0.000193 ± 2.3e-05 s⁻¹ | 0.00052 ± 6.6e-05 s⁻¹ | 0.000669 ± 9.4e-05 s⁻¹ | 2220 ± 480 µM |
| U30C A42G | 0.000456 ± 7.6e-05 s⁻¹ |  | 7.93e-05 ± 2.8e-05 s⁻¹ | 0.00012 ± 3.3e-05 s⁻¹ | 0.000368 ± 9.6e-05 s⁻¹ | 0.0004 ± 5.9e-05 s⁻¹ | 1310 ± 520 µM |
| G13C G66U | < 1e-05 s⁻¹ |  | < 1e-05 s⁻¹ |  |  |  | 766 ± 350 µM |
| C8U C58U C68A | 2.49e-05 ± 7.3e-06 s⁻¹ |  |  |  | < 1e-05 s⁻¹ |  |  |
| A15C U49G | 0.000113 ± 1.2e-05 s⁻¹ |  |  |  | 8.06e-05 ± 2.4e-05 s⁻¹ | 9.51e-05 ± 1.9e-05 s⁻¹ | 1520 ± 550 µM |
| A6C A15C | 3.27e-05 ± 1.8e-06 s⁻¹ |  |  |  |  |  |  |
| G13A C70U | 0.000795 ± 0.00019 s⁻¹ |  | 7.83e-05 ± 1.4e-05 s⁻¹ | 0.000154 ± 1.7e-05 s⁻¹ | 0.000388 ± 6.1e-05 s⁻¹ | 0.000676 ± 9.5e-05 s⁻¹ | 2410 ± 870 µM |
| C11U A39C | 0.000759 ± 0.00011 s⁻¹ |  |  | 8.75e-05 ± 1.3e-05 s⁻¹ | 0.000299 ± 5e-05 s⁻¹ | 0.00051 ± 5.5e-05 s⁻¹ | 4650 ± 1100 µM |
| A6G U47G | 0.0001 ± 1.3e-05 s⁻¹ | < 1e-05 s⁻¹ |  | 3.81e-05 ± 1.5e-05 s⁻¹ | 6.1e-05 ± 1.2e-05 s⁻¹ | 9.1e-05 ± 1.8e-05 s⁻¹ | 1400 ± 520 µM |
| U55A G59U | 1.92e-05 ± 2.2e-06 s⁻¹ |  |  |  | < 1e-05 s⁻¹ |  |  |
| G66A C71G | 0.00165 ± 0.00056 s⁻¹ | 5.97e-05 ± 7.2e-06 s⁻¹ | 0.000141 ± 1.8e-05 s⁻¹ | 0.000486 ± 6.2e-05 s⁻¹ | 0.000935 ± 9.9e-05 s⁻¹ | 0.00264 ± 0.00044 s⁻¹ | 1470 ± 720 µM |
| U56C C67U | 3.78e-05 ± 8.1e-07 s⁻¹ | < 1e-05 s⁻¹ | < 1e-05 s⁻¹ |  |  |  | 7870 ± 360 µM |
| C11U A14C | 0.000773 ± 0.00026 s⁻¹ |  | 8.34e-05 ± 1.7e-05 s⁻¹ | 0.000151 ± 2.1e-05 s⁻¹ | 0.000275 ± 5.2e-05 s⁻¹ | 0.000712 ± 8.5e-05 s⁻¹ |  |
| A12C G40C | 0.000942 ± 0.00014 s⁻¹ | 3.01e-05 ± 9.1e-06 s⁻¹ | 5.51e-05 ± 8.5e-06 s⁻¹ | 0.0002 ± 6.3e-05 s⁻¹ | 0.000666 ± 0.00012 s⁻¹ | 0.000746 ± 6.8e-05 s⁻¹ | 2310 ± 620 µM |

| Variant | kcat (glucosamine-6-phosphate [1]) | self-cleavage kobs at 40 uM GlcN6P (glucosamine-6-phosphate [2]) | self-cleavage kobs at 160 uM GlcN6P (glucosamine-6-phosphate [3]) | self-cleavage kobs at 640 uM GlcN6P (glucosamine-6-phosphate [4]) | self-cleavage kobs at 2500 uM GlcN6P (glucosamine-6-phosphate [5]) | self-cleavage kobs at 10000 uM GlcN6P (glucosamine-6-phosphate [6]) | KM (glucosamine-6-phosphate [7]) |
| --- | --- | --- | --- | --- | --- | --- | --- |
| G35C U65G | < 1e-05 s⁻¹ | < 1e-05 s⁻¹ | < 1e-05 s⁻¹ |  | < 1e-05 s⁻¹ |  | 1500 ± 360 µM |
| A12G A52G | 3.09e-05 ± 1e-05 s⁻¹ |  |  |  | 5.02e-05 ± 1.5e-05 s⁻¹ | 2.49e-05 ± 8.8e-06 s⁻¹ |  |
| U30A C67G | 0.000166 ± 1.4e-05 s⁻¹ |  |  | 5.03e-05 ± 5.9e-06 s⁻¹ | 9.16e-05 ± 8.4e-06 s⁻¹ | 0.00015 ± 1.3e-05 s⁻¹ | 1650 ± 330 µM |
| U47C C67U | 0.000295 ± 6.9e-05 s⁻¹ |  | 6.7e-05 ± 2.4e-05 s⁻¹ | 0.000131 ± 3.2e-05 s⁻¹ | 0.000177 ± 3.5e-05 s⁻¹ | 0.000358 ± 6e-05 s⁻¹ |  |
| U30C A39C | 0.000139 ± 1.1e-05 s⁻¹ |  |  |  | 5.33e-05 ± 1e-05 s⁻¹ | 9.75e-05 ± 9.4e-06 s⁻¹ | 4210 ± 820 µM |
| U31G G37U | < 1e-05 s⁻¹ |  |  |  |  |  |  |
| G13C A53G | 0.000174 ± 2.8e-05 s⁻¹ |  |  | 2.97e-05 ± 9e-06 s⁻¹ | 7.05e-05 ± 7.7e-06 s⁻¹ | 0.00013 ± 1.9e-05 s⁻¹ | 3550 ± 1100 µM |
| C16U C61U | 1.75e-05 ± 1.4e-06 s⁻¹ |  |  |  |  |  |  |
| A39U G44A | 0.00136 ± 0.00031 s⁻¹ | 0.000115 ± 1.3e-05 s⁻¹ | 0.00021 ± 3.9e-05 s⁻¹ | 0.00078 ± 9.9e-05 s⁻¹ | 0.001 ± 0.00017 s⁻¹ | 0.00144 ± 0.00021 s⁻¹ | 572 ± 210 µM |
| U46G U54G | 0.0123 ± 0.0017 s⁻¹ | 0.000155 ± 2.6e-05 s⁻¹ | 0.000596 ± 0.00017 s⁻¹ | 0.00224 ± 0.0004 s⁻¹ | 0.00479 ± 0.0013 s⁻¹ | 0.0102 ± 0.003 s⁻¹ | 3110 ± 510 µM |
| A53U A64G | 0.0234 ± 0.0024 s⁻¹ | 0.000491 ± 6.1e-05 s⁻¹ | 0.00148 ± 0.00041 s⁻¹ | 0.00551 ± 0.0013 s⁻¹ | 0.0138 ± 0.0041 s⁻¹ | 0.0195 ± 0.0038 s⁻¹ | 1970 ± 260 µM |
| A33C C58G | 1.09e-05 ± 3.4e-06 s⁻¹ |  |  |  |  |  |  |
| U47C U54G | 0.00375 ± 0.00045 s⁻¹ | 0.000121 ± 1.7e-05 s⁻¹ |  | 0.0013 ± 0.00028 s⁻¹ | 0.00193 ± 0.00076 s⁻¹ | 0.00359 ± 0.00065 s⁻¹ | 1210 ± 200 µM |
| U56G U69G | 4.9e-05 ± 9e-06 s⁻¹ |  |  | 8.25e-05 ± 1.5e-05 s⁻¹ | 4.98e-05 ± 1.3e-05 s⁻¹ | 4.12e-05 ± 7.4e-06 s⁻¹ |  |
| C16G G59A C71G | 1.74e-05 ± 4.8e-06 s⁻¹ |  |  |  |  |  |  |
| C16U G43A | 8.72e-05 ± 3e-05 s⁻¹ | < 1e-05 s⁻¹ |  |  | 2.82e-05 ± 1e-05 s⁻¹ | 6.17e-05 ± 1e-05 s⁻¹ |  |
